Results on 9 molecules are retold here after PMC7533328, “Sulfane sulfur‐activated actinorhodin production and sporulation is maintained by a natural gene circuit in Streptomyces coelicolor”.

Substitutions are numbered along the chain they refer to.

The target of data set [1] is T1, ScCsoR (Streptomyces coelicolor M145) (UniProt Q9RD62).
T1 sequence: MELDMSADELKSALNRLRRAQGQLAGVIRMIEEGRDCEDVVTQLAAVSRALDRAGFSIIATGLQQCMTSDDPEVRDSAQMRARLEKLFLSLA
Kind of data set: EMSA. Conditions: 20 mM Tris-HCl pH 8.0, 2 mM EDTA, 20 mM KCl, 0.5 mM DTT (or 1-3 mM HSnH), 4% Ficoll-400, 1 nM probe, 25 C, 15 min. On the technique in general: Mobility shift assays separate free from complexed probe on a gel.

Data set [2] has as its system T2, ScCsoR-C37S-C66S C38S;C67S (Streptomyces coelicolor M145), ORF:9a82776c.
T2 sequence: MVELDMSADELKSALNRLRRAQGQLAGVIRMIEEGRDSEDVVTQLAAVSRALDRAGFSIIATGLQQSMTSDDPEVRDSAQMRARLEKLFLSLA
In words: EMSA. As to conditions: 20 mM Tris-HCl pH 8.0, 2 mM EDTA, 20 mM KCl, 0.5 mM DTT (or 1-3 mM HSnH), 4% Ficoll-400, 1 nM probe, 25 C, 15 min.

Data set [3] relates to T3, ScCsoR-C66S C67S (Streptomyces coelicolor M145), ORF:9a82776c.
T3 sequence: T2 sequence with S38C
In words: EMSA. Conditions: 20 mM Tris-HCl pH 8.0, 2 mM EDTA, 20 mM KCl, 0.5 mM DTT (or 1-3 mM HSnH), 4% Ficoll-400, 1 nM probe, 25 C, 15 min.

The test system of data set [4] is T4, ScCsoR-C37S C38S (Streptomyces coelicolor M145), ORF:9a82776c.
T4 sequence: T2 sequence with S67C
In words: EMSA. Conditions: 20 mM Tris-HCl pH 8.0, 2 mM EDTA, 20 mM KCl, 0.5 mM DTT (or 1-3 mM HSnH), 4% Ficoll-400, 1 nM probe, 25 C, 15 min.

For data set [5], the target named is T5, ScCsoR (Streptomyces coelicolor M145, UniProt Q9RD62 1-92).
T5 sequence: T1 sequence
In words: EMSA; DTT; also with 50-fold competitor DNA; 20 mM Tris-HCl pH 8.0, 2 mM EDTA, 20 mM KCl, 0.5 mM DTT (or 1-3 mM HSnH), 4% Ficoll-400, 1 nM probe, 25 C, 15 min. Conditions: protein: recombinant; tags: N-terminal His-tag (pET15b); chain copies: 4; label: 5'-biotin on strand 1; blunt.

Data set [6] deals with T5, ScCsoR. Kind of data set: competition EMSA; 50-fold excess over 79-bp probe; 20 mM Tris-HCl pH 8.0, 2 mM EDTA, 20 mM KCl, 0.5 mM DTT (or 1-3 mM HSnH), 4% Ficoll-400, 1 nM probe, 25 C, 15 min. Conditions: protein: recombinant; tags: N-terminal His-tag (pET15b); chain copies: 4; blunt.

For the molecule “ACGGCGCGGGGGCGGCGTGAGCAGACGACGAGCACACCCTCTCAATACCCCCCTGGGTATATCTGTTACGGTGGCCGGAAGAGATACCCCAGGGGGTAATTCCGGAAGGA (double strand) [Scpdo promoter f2]”, in data set [1], the binding result was “binds”. Same read-out and setting: the result for “CGGTGACCTTCTCCGCCCCGTGTTCGGCGGCGAGGCGCACCGCGGCCTCGGCCAGAGCGGCACGTGTGGCCCGCTTCTTCCGCTCCCGCAGACCGCCCCCCGCGGCACCCTTCTCCGACATAAGTTGCATGGTATGCAAAGATGCATGACATGCAAAATTGGCGGGCGCCGACCCCGGAAGGGGATCGGCGCCCGCCGTCGTCGGTGCGGCTCAGGCGGCCAGTCGGGCCAGCGTCTCCTCG (double strand) [sco0622 promoter 242 bp]” reads “no binding”; that for “AGGACGTCGACAAAGAACACGGCACGCTCTCCTTCCGGAATTACCCCCTGGGGTATCTCTTCCGGCCACCGTAACAGATATACCCAGGGGGGTATTGAGAGGGTGTGC (double strand) [Scpdo promoter f3]”, “binds”.

In the case of “GCCAGATAGCTGCGGTTGCCCAGTGACTCGGTCTCCAGGACGTCGACAAAGAACACGGCACGCTCTCCTTCCGGAATTACCCCCTGGGGTATCTCTTCCGGCCACCGT (double strand) [Scpdo promoter f4]”, the binding entry in data set [1] is “no binding”. On the same count and under the same terms, the result for “TCTGCTCACGCCGCCCCCGCGCCGTCGCGGGCCGAGTGCGCCGCCGCTGCGCGCCTGTGCCGCGAGACCCGGGCAACTCCGGTGTACGACGCCGAAGTTGGGGTAC (double strand) [Scpdo promoter f1]” reads “no binding”; that for “CGACGACGGTGAACTCGGCCAGGCGGGCCGCCGCCTGCCCGGTGGTCAGTGCGGTGGCGGTTGCTGCGGGGGTGTTCACGGAGCGAGACCTTTCTCGTTGTTCGTCCCCCCGCGCGGTAGGATACCCGCGGGGGTATGTGGGGTTCGGTGAGGTATCGGGTGGAGGAGAGGGAGAAGCGTGGAGCTCGACATGTCGGCCGACGAACTGAAGTCGGCGCTGAACCGGCTGCGGCGCGCCCAGGGGCAGCTCGCGGGAGTCAT (double strand) [SccsoR-Scrhod intergenic region 261 bp]”, “binds”. In the case of “GCCAGATAGCTGCGGTTGCCCAGTGACTCGGTCTCCAGGACGTCGACAAAGAACACGGCACGCTCTCCTTCCGGAATTACCCCCTGGGGTATCTCTTCCGGCCACCGTAACAGATATACCCAGGGGGGTATTGAGAGGGTGTGCTCGTCGTCTGCTCACGCCGCCCCCGCGCCGTCGCGGGCCGAGTGCGCCGCCGCTGCGCGCCTGTGCCGCGAGACCCGGGCAACTCCGGTGTACGACGCCGAAGTTGGGGTAC (double strand) [Scpdo promoter 256 bp]”, the binding entry in data set [2], in data set [3], in data set [1] and in data set [4] was “binds” each time.

B1: Scpdo 79-bp probe (bsI, bsII) (dsDNA)
DNA 1: CCTGGGTATATCTGTTACGGTGGCCGGAAGAGATACCCCAGGGGGTAATTCCGGAAGGAGAGCGTGCCGTGTTCTTTGT
DNA 2: ACAAAGAACACGGCACGCTCTCCTTCCGGAATTACCCCCTGGGGTATCTCTTCCGGCCACCGTAACAGATATACCCAGG
In the case of B1, the binding result with ScCsoR [5] was “binds”.

B2: hrdB 79-bp competitor DNA (dsDNA)
DNA 1: CATTCCCAAGCCGGTGGTCGGCCCCTGTCCGCCGTGGACGGGGCCGGAAGCCGTTTTTCAACGTTCCGAGAGGTTGTTC
DNA 2: GAACAACCTCTCGGAACGTTGAAAAACGGCTTCCGGCCCCGTCCACGGCGGACAGGGGCCGACCACCGGCTTGGGAATG
Consider B2, for which the binding result with ScCsoR [6] was “no binding”.
